The results in this text go back to US20220135687A1 (NANJING LEGEND BIOTECH, published 2022).

Read-outs that look alike come from different tables or passages of the source.

The target in assay [1] is T1, human PD-L1 expressed on CHO-K1 cells (Genscript, Cat #M00543) (human, UniProt Q9NZQ7 19-290).
T1 construct: also called PD-L1 cell line
Nature of the assay: FACS, CHO-K1/human PD-L1 cells. The protocol: PD-L1 stable cell line binding activity assessment of 12 mouse mAbs was carried out using FACS. CHO-K1 cells expressing human PD-L1 (Genscript, Cat #M00543) were dissociated from adherent culture flasks and mixed with varying concentrations of antibodies. The antibody and cells were incubated for 30 minutes at room temperature, washed three times with FACS buffer (PBS containing 1% BSA). PE-labeled goat anti-mouse IgG (minimal x-reactivity) secondary antibody (BioLegend, Cat #405307) was added and incubated at room temperature for 15 minutes. Cells were washed again with FACS buffer and analyzed by FACSCalibur (BD Bioscience, San Jose, Calif.) and Flowjo software. Data were analyzed with Prism 6 (GraphPad Software, San Diego, Calif.) using non-linear regression, and EC₅₀ values were calculated (FIGS. 2A-2L and Table 3).

Assay [2] addresses T1, human PD-L1 expressed on CHO-K1 cells …. Nature of the assay: FACS competition vs biotin-PD-1-Fc on CHO-K1/human PD-L1 cells. The protocol: A series of diluted mouse mAbs (concentration starting from 900 nM, 3 fold dilution, 50 μl per well) were added afterwards. The mixture was incubated at 4° C. for 30 minutes, washed twice with wash buffer, followed by the addition of PEcy5/streptavidin (1 μg/ml, 150 μl/well). The plates were again incubated at 4° C. for 30 minutes before the cells in each well were analyzed by FACSCalibur (BD Bioscience, San Jose, Calif.) and Flowjo software.

For assay [3], the target named is T2, His-tagged PD-L1 ECD protein (ACROBiosystems) (human, UniProt Q9NZQ7 19-238).
T2 construct: Bought protein; also called PD-L1-His; PD-L1/His; not shown: His tag
T2 sequence (Q9NZQ7 19-238): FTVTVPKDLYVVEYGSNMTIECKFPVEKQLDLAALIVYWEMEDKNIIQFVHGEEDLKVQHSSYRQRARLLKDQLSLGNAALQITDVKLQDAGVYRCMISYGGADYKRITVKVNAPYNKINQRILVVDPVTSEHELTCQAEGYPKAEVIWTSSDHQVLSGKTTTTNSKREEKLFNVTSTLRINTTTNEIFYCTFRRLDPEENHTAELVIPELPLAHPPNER
Nature of the assay: SPR, supernatant IgG captured, PD-L1-His analyte.

The target of assay [4] is T2, His-tagged PD-L1 ECD protein …. Nature of the assay: SPR, supernatant IgG captured, PD-L1-His analyte. This is another data set of the same source. (In general: SPR reads the build-up and loss of mass on a sensor chip optically.)

T1 sequence (Q9NZQ7 19-290, one chain of several): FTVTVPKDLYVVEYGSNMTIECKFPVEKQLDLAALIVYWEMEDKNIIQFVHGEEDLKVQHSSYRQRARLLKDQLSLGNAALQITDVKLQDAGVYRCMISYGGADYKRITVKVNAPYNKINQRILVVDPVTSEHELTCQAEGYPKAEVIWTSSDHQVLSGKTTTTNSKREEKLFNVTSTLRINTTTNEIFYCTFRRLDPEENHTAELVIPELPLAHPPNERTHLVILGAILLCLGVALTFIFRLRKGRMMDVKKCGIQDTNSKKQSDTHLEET

B1: 25B6E5D8 (antibody, V domains shown)
VH: QFQLQQSGAELVRPGSSVKISCKASGYEFSSNWMNWVKQRPGQSLEWIGQIWPGDGDTNYNGKFRGKATLTSDKSSSTAYMQLNSLTSEDSAVYFCARGRASFYFDYWGQGTALTVSS
VL: DIVLTQSPASLAVSLGQRATISCRASESVDDYGNSFMHWYQQKPGQPPKLLIYRASNLESGIPVRFSGSGSRTDFTLTINPVEADDVATYYCQQSNEDPHTFGGGTKLEIK
notes: Mouse mAb from hybridoma culture
Take B1: in assay [1], it took 4.5 nM to reach a half-maximal effect (EC50) and the “Top (best-fit value)” value came to 1410.

B2: 21D1F4D4 (antibody, V domains shown)
VH: QVQLQQPGAEVVRPGASVKLSCKASGYTFTNYWISWVKQRPGQGLEWIGNIYPSDSYTNYNQNFKDKATLTVDKSSSTAYMQLSSPTSEDSAVYYCTTGIITVIATRDDYWGQGTTLTVSS
VL: QIVLTQSPAIMSASPGEKVTLTCSASSSVSSSYLYWYQQKPGSSPKLWIYSTSNLASGVPARFSGSGSGTSYSLTVSSMEAEDAASYFCHQWSSYPFTFGSGTKLEIK
notes: as for B1
As to B2, in assay [1], the EC50 (commonly the concentration needed to bring the measured effect to its halfway point) came out at 9.37 nM and the “Top (best-fit value)” value was determined as 1960. Also, in assay [2], the IC50 (as a rule, the concentration needed to halve the response being measured) is 3.79 nM.

B3: 29A8_VH-VL.M1 (antibody, human IgG1, kappa, N297A, V domains shown)
VH: DVQLQGSGPGLVKPSQSLSLTCTVTGYSITSDFAWDWIRQFPGNKLEWMGHIRFSGTTSYNPSLKSRISITRDTSKNQFFLQLNSVTSEDTATYYCARSTLITKGFFDYWGQGTTLTVSS
VL: DIVMTQSHKFMSTSVGGRVSITCRASQDVSPAVAWYQQKPGQSPKLLIYWASTRHTGVPDRFTGSGSGTDFTLTISSVQTEDLALYYCQQHYSTPWTFGGGTKLEIKR
notes: human IgG1 effector-less Fc, kappa
In the case of B3, in assay [3], the Kd – broadly, the constant that tells how readily two partners part at equilibrium – was determined as 0.29 nM; the koff (in general, the rate constant with which the complex falls apart) stood at 0.00015 s⁻¹; the kon (as a rule, the second-order rate constant of association) came to 530000 M⁻¹ s⁻¹.

B4: 1H1G4D9 (antibody, V domains shown)
VH: EGQLQQSGAELVKPGASVILSCTASGFNIKDTYIHWLNQRPEQGLEWIGRIEPANGNTKYDPTFQGKATITADTSSNTAYLQLTSLTSEDTAVYYCSRGGIYYYGSHWYFDVWGAGTLVTVSS
VL: DVLMTQTPLSLPVSLGDQASISCRSSQNIVYSDGDTYLEWYLQKPGQSPKLLIFKVSNRFSGVPDRFSGSGSGTDFTLKISRVEAEDLGVYYCFQGSHVPFTFGSGTKLEIK
notes: as for B1
Consider B4, for which, in assay [1], the midpoint of the response, the EC50, lay at 12.3 nM and the “Top (best-fit value)” value stood at 1760. This molecule came in with an IC50 in assay [2] of 11.8 nM.

B5: 53C1_VH-VL.M1 (antibody, human IgG1, kappa, N297A, V domains shown)
VH: QVQLQQSGNELARPGASVRLSCKASGYIFTGYGITWVRQRPGQGLEWIGEIFPRRVNTYYSEKFKGRATLTADISSSTAYMELRSLTSEDSAVYFCARDYDPYFALDYWGQGTSVTVSS
VL: DIVMTQSHKFMSTSVGDRVSITCRASQDVSTAVDWYQQKPGQSPKLLIYSASYRYTGVPDRFTGSGSGTAFTFTISGEQAEDLAVYYCQQHYSIPFTFGGGTKLEIKR
notes: Chimeric mutant, VL K24R in the entry; human IgG1 effector-less Fc, kappa
B5: in assay [3], the dissociation constant (Kd) was 0.76 nM, the koff was found to be 0.0002 s⁻¹ and the on-rate (kon) worked out at 260000 M⁻¹ s⁻¹.

B6: 53C1_VH.M2-VL (antibody, human IgG1, kappa, N297A, V domains shown)
VH: QVQLQQSGNELARPGASVRLSCKASGYIFTGYGITWVRQRPGQGLEWIGEIFPRRVATYYSEKFKGRATLTADISSSTAYMELRSLTSEDSAVYFCARDYDPYFALDYWGQGTSVTVSS
VL: DIVMTQSHKFMSTSVGDRVSITCKASQDVSTAVDWYQQKPGQSPKLLIYSASYRYTGVPDRFTGSGSGTAFTFTISGEQAEDLAVYYCQQHYSIPFTFGGGTKLEIKR
notes: Chimeric mutant, VH N57A in the entry; human IgG1 effector-less Fc, kappa
In assay [3], B6 displayed a Kd of 0.81 nM, an off-rate (koff) of 0.00016 s⁻¹ and an on-rate (kon) of 200000 M⁻¹ s⁻¹.

B7: 53C1_VH.M2-VL.M1 (antibody, human IgG1, kappa, N297A, V domains shown)
VH: QVQLQQSGNELARPGASVRLSCKASGYIFTGYGITWVRQRPGQGLEWIGEIFPRRVATYYSEKFKGRATLTADISSSTAYMELRSLTSEDSAVYFCARDYDPYFALDYWGQGTSVTVSS
VL: DIVMTQSHKFMSTSVGDRVSITCRASQDVSTAVDWYQQKPGQSPKLLIYSASYRYTGVPDRFTGSGSGTAFTFTISGEQAEDLAVYYCQQHYSIPFTFGGGTKLEIKR
notes: Chimeric mutant (VH N57A, VL K24R in the entries); human IgG1 effector-less Fc, kappa
As for B7, in assay [3], the dissociation constant Kd was determined as 0.94 nM, the koff is 0.00018 s⁻¹ and the kon stood at 200000 M⁻¹ s⁻¹.

B8: 53C1_VH.M3-VL (antibody, human IgG1, kappa, N297A, V domains shown)
VH: QVQLQQSGNELARPGASVRLSCKASGYIFTGYGITWVRQRPGQGLEWIGEIFPRRVQTYYSEKFKGRATLTADISSSTAYMELRSLTSEDSAVYFCARDYDPYFALDYWGQGTSVTVSS
VL: DIVMTQSHKFMSTSVGDRVSITCKASQDVSTAVDWYQQKPGQSPKLLIYSASYRYTGVPDRFTGSGSGTAFTFTISGEQAEDLAVYYCQQHYSIPFTFGGGTKLEIKR
notes: Chimeric mutant, VH N57Q in the entry; human IgG1 effector-less Fc, kappa
In assay [3], B8 came in with a Kd of 0.53 nM, a koff of 0.00014 s⁻¹ and a kon of 260000 M⁻¹ s⁻¹.

B9: 53C1_VH.M1-VL (antibody, human IgG1, kappa, N297A, V domains shown)
VH: QVQLQQSGNELARPGASVRLSCKASGYIFTGYGITWVRQRPGQGLEWIGEIFPRRVSTYYSEKFKGRATLTADISSSTAYMELRSLTSEDSAVYFCARDYDPYFALDYWGQGTSVTVSS
VL: DIVMTQSHKFMSTSVGDRVSITCKASQDVSTAVDWYQQKPGQSPKLLIYSASYRYTGVPDRFTGSGSGTAFTFTISGEQAEDLAVYYCQQHYSIPFTFGGGTKLEIKR
notes: Chimeric mutant, VH N57S in the entry; human IgG1 effector-less Fc, kappa
In assay [3], B9 yielded a Kd of 0.87 nM, a koff of 0.00021 s⁻¹ and an association rate constant (kon) of 240000 M⁻¹ s⁻¹.

B10: 53C1_VH.M3-VL.M1 (antibody, human IgG1, kappa, N297A, V domains shown)
VH: QVQLQQSGNELARPGASVRLSCKASGYIFTGYGITWVRQRPGQGLEWIGEIFPRRVQTYYSEKFKGRATLTADISSSTAYMELRSLTSEDSAVYFCARDYDPYFALDYWGQGTSVTVSS
VL: DIVMTQSHKFMSTSVGDRVSITCRASQDVSTAVDWYQQKPGQSPKLLIYSASYRYTGVPDRFTGSGSGTAFTFTISGEQAEDLAVYYCQQHYSIPFTFGGGTKLEIKR
notes: Chimeric mutant (VH N57Q, VL K24R in the entries); human IgG1 effector-less Fc, kappa
In assay [3], B10 returned a Kd of 0.56 nM, a koff of 0.00014 s⁻¹ and a kon of 260000 M⁻¹ s⁻¹.

B11: 53C1_VH.M1-VL.M1 (antibody, human IgG1, kappa, N297A, V domains shown)
VH: QVQLQQSGNELARPGASVRLSCKASGYIFTGYGITWVRQRPGQGLEWIGEIFPRRVSTYYSEKFKGRATLTADISSSTAYMELRSLTSEDSAVYFCARDYDPYFALDYWGQGTSVTVSS
VL: DIVMTQSHKFMSTSVGDRVSITCRASQDVSTAVDWYQQKPGQSPKLLIYSASYRYTGVPDRFTGSGSGTAFTFTISGEQAEDLAVYYCQQHYSIPFTFGGGTKLEIKR
notes: Chimeric mutant (VH N57S, VL K24R in the entries); human IgG1 effector-less Fc, kappa
In assay [3], B11 had a dissociation constant (Kd) of 0.86 nM, a koff of 0.0002 s⁻¹ and an association rate constant (kon) of 240000 M⁻¹ s⁻¹.

B12: 29A8_VH2-VL1.M1 (antibody, human IgG1, kappa, N297A, V domains shown)
VH: EVQLQESGPGLVKPSETLSLTCTVSGYSITSDFAWDWIRQFPGKGLEWMGHIRFSGTTSYNPSLKSRITISVDTSKNQFSLKLSSVTAADTAVYYCARSTLITKGFFDYWGQGTLVTVSS
VL: DIQMTQSPSSLSASVGDRVTITCRASQDVSPAVAWYQQKPGKAPKLLIYWASTRHTGVPSRFSGSGSGTDFTLTISSLQPEDFATYYCQQHYSTPWTFGQGTKVEIKR
notes: Humanized, hIgG1 effector-less Fc, kappa; see recheck on K24R in the .M1 light chain
In assay [4], B12 gave a Kd of 1.3 nM, a koff of 0.00061 s⁻¹ and a kon of 470000 M⁻¹ s⁻¹.

B13: 29A8_VH3-VL1.M1 (antibody, human IgG1, kappa, N297A, V domains shown)
VH: EVQLQESGPGLVKPSETLSLTCTVSGYSITSDFAWDWIRQFPGKGLEWMGHIRFSGTTSYNPSLKSRITISVDTSKNQFFLKLSSVTAADTATYYCARSTLITKGFFDYWGQGTLLTVSS
VL: DIQMTQSPSSLSASVGDRVTITCRASQDVSPAVAWYQQKPGKAPKLLIYWASTRHTGVPSRFSGSGSGTDFTLTISSLQPEDFATYYCQQHYSTPWTFGQGTKVEIKR
notes: as for B12
In assay [4], B13 displayed a Kd of 1.1 nM, a koff of 0.00051 s⁻¹ and a kon of 480000 M⁻¹ s⁻¹.
